# Laboratory results published in PMC10450579 (2023).
# Values joined by “and” are separate entries in the source; they are usually repeats but may differ in a detail not shown here. Equal values may be shown once.
# B1: Aurora A kinase (AurA), residues 122 to 403 (domain or fragment)
# chain: ESKKRQWALEDFEIGRPLGKGKFGNVYLAREKQSKFILALKVLFKAQLEKAGVEHQLRREVEIQSHLRHPNILRLYGYFHDATRVYLILEYAPLGTVYRELQKLSKFDEQRTATYITELANALSYCHSKRVIHRDIKPENLLLGSAGELKIADFGWSVHAPSSRRTTLCGTLDYLPPEMIEGRMHDEKVDLWSLGVLCYEFLVGKPPFEANTYQETYKRISRVEFTFPDFVTEGARDLISRLLKHNPSQRPMLREVLEHPWITANSSKPSNCQNKESASKQS
# B2: monobody Mb2 (designed binder)
# chain: GSVSSVPTKLEVVAATPTSLLISWDAPAVTVVHYVITYGETGGNSPVQEFTVPGSKSTATISGLKPGVDYTITVYAIDFYWGSYSPISINYRT
# Assays:
# [1] = target: Mb3; test: ITC
# [2] = target: Mb3; test: ITC; AurA preincubated with danusertib
# [3] = target: B1; test: ITC
Binder,Kd [1] [nM],Kd [2] [nM],Kd [3]
B1,180,69,
B2,,,889 nM and 1500 nM
